Laboratory results taken from patent publication US20220403031A1 (WUXI BIOLOGICS IRELAND, published 2022).

What was measured:
[1] = target: T1, mouse PD-L1 on 293F cells (W315-293F.mPro1.C1) (mouse, UniProt Q9EP73 19-290); experiment: FACS affinity on mouse PD-L1 cells, quantitative beads
T1 construct: whole, on cells; also called cell surface mouse PD-L1; Mouse PD-L1-expressing 293F cell
Description: (§1) Binding affinities of testing antibodies to cell surface human, cynomolgus and mouse PD-L1 were determined by flow cytometry on the engineering cell lines, respectively. The cells were transferred in to 96-well U-bottom plates (BD) at a density of 5×10⁴ cells/well. Antibodies to be tested were 1: 2-fold serially diluted in 1% BSA/1×PBS and incubated with cells at 4° C. for 1 hr. Then, the plates were centrifuged at 1500 rpm for 4 mins and the supernatant was discarded. The secondary antibody, Alexa647 conjugated goat anti-human IgG Fc (Jackson, Cat No. 109-605-098, Lot No. 121363), was added to re-suspend cells and incubated at 4° C. in the dark for 30 min. The cells were washed once and re-suspended in 100 μL 1% BSA/1×PBS, then measured by flow cytometry (BD Canto II) and analyzed by FlowJo. Fluorescence intensity was converted to bound molecules/cell based on the quantitative beads (Quantum™ MESF Kits, Bangs Laboratories). KD value was calculated by Graphpad Prism5.

[2] = target: T2, hCD80.ECD.His (SinoBiological-10698-H08H) (human, UniProt P33681 35-242); experiment: ELISA on coated protein (1 ug/mL)
T2 construct: extracellular domain; His tag
T2 sequence (looked up): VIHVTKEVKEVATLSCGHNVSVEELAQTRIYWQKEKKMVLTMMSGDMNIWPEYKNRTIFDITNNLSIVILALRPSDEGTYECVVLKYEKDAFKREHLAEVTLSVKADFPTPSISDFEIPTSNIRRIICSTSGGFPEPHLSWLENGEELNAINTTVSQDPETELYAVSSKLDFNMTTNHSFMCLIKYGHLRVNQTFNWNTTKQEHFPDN
Description: (§2) The plate was incubated at ambient temperature for 1 hour. The binding of the antibodies to the immobilized proteins was detected by HRP-labeled goat anti-human IgG antibody. The color was developed by dispensing 100 μL of TMB substrate, and then stopped by 100 μL of 2N HCl. The absorbance was read at 450 nm and 540 nm using a microplate spectrophotometer, respectively.

[3] = target: T3, hCD86.ECD.His (SinoBiological-10699-H08H) (human, UniProt P42081 24-247); experiment: ELISA on coated protein (1 ug/mL)
T3 construct: extracellular domain; His tag
T3 sequence (looked up): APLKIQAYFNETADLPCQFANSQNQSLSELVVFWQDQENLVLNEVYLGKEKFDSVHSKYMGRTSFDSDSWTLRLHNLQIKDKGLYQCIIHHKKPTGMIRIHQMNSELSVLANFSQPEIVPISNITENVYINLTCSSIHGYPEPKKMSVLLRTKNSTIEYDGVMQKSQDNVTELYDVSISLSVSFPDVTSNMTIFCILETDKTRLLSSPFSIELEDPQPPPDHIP
Description: as §2

[4] = target: T4, cynomolgus monkey PD-L1 on 293F cells (W315-293F.cynoPro1.2A2) (cynomolgus monkey, UniProt G7PSE7 19-290); experiment: FACS on cynomolgus PD-L1 293F cells
T4 construct: whole, on cells; also called cell surface monkey PD-L1; cynoPD-L1
Description: (§3) After washing with 1×PBS/1% BSA, the secondary antibody PE-labeled goat anti-human IgG was applied and incubated with cells at 4° C. for 1 hour. […] Human IgG1 and IgG4 isotype antibodies were used as negative control. The cells were then washed and resuspended in 1×PBS/1% BSA. MFI of the cells was measured by a flow cytometer (BD) and analyzed by FlowJo (version 7.6.1).

[5] = target: T4, cynomolgus monkey PD-L1 on 293F cells …; experiment: FACS affinity on cynomolgus PD-L1 cells, quantitative beads
Description: as §1

[6] = target: T1, mouse PD-L1 on 293F cells …; experiment: FACS competition: antibody titrated against 5 ug/mL mouse PD-1 ECD mFc on mouse PD-L1 293F cells
Description: as §3, with “Mouse PD-L1 transfected W315-293F.mPro1.C1 cells were transferred into 96-well U-bottom plates at a density of 2×10⁵ cells/well. […] After” for “After”, “anti-mouse” for “anti-human”

[7] = target: T5, human PD-L1 on CHO-K1 cells (W315-CHO-K1.hPro1.C11) (human, UniProt Q9NZQ7 19-290); experiment: FACS competition on human PD-L1 CHO-K1 cells: titrated W3156 antibody mixed with 0.5 ug/mL biotinylated BMK6.hIgG4 (m4), SA-PE [A]
T5 construct: whole, on cells; also called cell surface human PD-L1; Human PD-L1-expressing CHO-K1 cell
Description: Human PD-L1 expressing cells W315-CHO-K1.hPro1.C11 were transferred into 96-well U-bottom plates at a density of 1×10⁵ cells/well. […] Then the mixture was added to the cells in 96-well plates and incubated at 4° C. for 1 hour. After washing with 1×PBS/1% BSA, the secondary antibody SA-PE was applied and incubated with cells at 4° C. for 1 hour. The cells were then washed and resuspended in 1×PBS/1% BSA. MFI of the cells was measured by a flow cytometer and analyzed by FlowJo (version 7.6.1).

T4 sequence (G7PSE7 entry or part of it): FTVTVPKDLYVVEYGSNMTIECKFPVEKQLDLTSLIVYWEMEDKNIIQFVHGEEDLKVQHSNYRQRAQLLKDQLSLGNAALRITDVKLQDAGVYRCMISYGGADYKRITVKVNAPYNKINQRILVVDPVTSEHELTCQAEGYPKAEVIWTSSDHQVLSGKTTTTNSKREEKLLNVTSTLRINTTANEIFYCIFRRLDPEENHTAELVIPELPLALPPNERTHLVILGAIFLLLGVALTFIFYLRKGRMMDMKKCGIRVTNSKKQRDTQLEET
T1 sequence (Q9EP73 19-290): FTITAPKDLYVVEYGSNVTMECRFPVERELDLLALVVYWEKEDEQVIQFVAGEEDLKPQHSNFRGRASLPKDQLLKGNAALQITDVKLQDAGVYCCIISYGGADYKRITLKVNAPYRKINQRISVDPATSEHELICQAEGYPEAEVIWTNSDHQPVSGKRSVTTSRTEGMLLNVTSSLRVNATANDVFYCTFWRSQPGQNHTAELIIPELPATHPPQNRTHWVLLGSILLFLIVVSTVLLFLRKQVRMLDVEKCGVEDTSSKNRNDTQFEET
T5 sequence (Q9NZQ7 19-290): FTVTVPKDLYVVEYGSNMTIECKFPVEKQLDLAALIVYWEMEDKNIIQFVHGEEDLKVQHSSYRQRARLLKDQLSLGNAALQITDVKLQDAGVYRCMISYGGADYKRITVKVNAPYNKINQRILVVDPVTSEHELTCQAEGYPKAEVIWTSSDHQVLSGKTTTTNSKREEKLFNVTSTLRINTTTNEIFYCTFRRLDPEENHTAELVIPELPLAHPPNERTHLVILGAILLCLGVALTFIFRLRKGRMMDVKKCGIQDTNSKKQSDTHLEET

Kd [1]: 0.69 nM | binding result [2]: no binding (tested: 66.7 nM) | binding result [3]: no binding (tested: 66.7 nM) | EC50 [4]: 2.06 nM | Kd [5]: 7.3 nM | IC50 [6]: 2.14 nM | IC50 (read off the curve) [7]: ~3 nM
B1: AP3R2-1A3-z12-hIgG1 (Fc fusion)
chain: EVQLVESGGGLVQPGGSLRLSCAASGHFSNLAVNWFRQAPGKERELVAGILWSGGSTFYADSVKGRFTISRGNAENMLYLQMNSLRAEDTAVYYCNTGTNWGQGTLVTVSS
notes: VHH-Fc (hIgG1) fusion of the humanized VHH; also called W3156-AP3R2-1A3-z12-hIgG1; W3156 antibody; not shown: Fc of human IgG1
